These results are taken from patent US20240165255A1 (FRED HUTCHINSON CANCER CENTER, published 2024).

The assay deals with folate receptor alpha (FOLR1) on MV4;11 FOLR1+ cells and on CBF/GLIS-transduced CB HSPCs (UniProt P15328 25-234, limits assumed). The assay can be described thus: cell-based or functional assay.
Sequence of folate receptor alpha (FOLR1) on MV4;11 FOLR1+ cells and on CBF/GLIS-transduced CB HSPCs (P15328 25-234 limits assumed): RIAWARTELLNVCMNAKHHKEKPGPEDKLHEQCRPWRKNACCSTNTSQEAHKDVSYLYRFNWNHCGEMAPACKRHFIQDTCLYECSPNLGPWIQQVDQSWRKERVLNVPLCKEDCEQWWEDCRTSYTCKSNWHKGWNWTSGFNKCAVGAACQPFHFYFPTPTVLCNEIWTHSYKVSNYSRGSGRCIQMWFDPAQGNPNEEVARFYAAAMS

B1: FOLR1-directed site-specific antibody-drug Conjugate P (IgG antibody with VH region SEQ ID NO: 362 and VL region SEQ ID NO: 367, conjugate formula P, n=4) (antibody, V domains shown)
VH: EVQLVESGGGLVQPGGSLRLSCAASGFNIRTQSIHWVRQAPGKGLEWIGDIFPIDGITDYADSVKGRFTISADTSKNTAYLQMNSLRAEDTAVYYCARGSWSWPSGMDYYLDYWGQGTLVTVSS
VL: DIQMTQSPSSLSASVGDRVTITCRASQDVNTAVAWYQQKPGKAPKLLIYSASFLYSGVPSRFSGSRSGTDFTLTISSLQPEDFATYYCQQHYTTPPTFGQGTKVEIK
modifications: para-azidomethylphenylalanine residues substituting for Y180 and F404 of each VH region (so in the source); heavy chain positions), conjugated according to conjugate formula P, n=4 (hemiasterlin drug-linker)
On to B1, for which the “in vitro cytotoxicity IC50 (printed as '1050s') against CBF/GLIS-transduced CB HPSCs (which upregulate FOLR1)” value amounted to 4.2 nM and the “in vitro cytotoxicity IC50 (printed as '1050s') against MV4;11 AML cell line engineered to express FOLR1 (MV4;11 FOLR1+)” value came out at 0.1 nM.
